Data taken from the supplement of paper PMC12042874.
± gives the uncertainty stated by the source.

Test: amyloid nucleation score (Sup35N fusion, yeast selection) (log enrichment); library NNK3; higher = more nucleation; inactive = no reads after selection
How it was run: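 DiMSum was used to calculate nucleation scores as log enrichment of output over input reads, centred on the mode score of non-aggregating sequences. Sequences with fewer than 100 input reads were not scored. Input and output came from Illumina sequencing of plasmid inserts in psi-negative yeast expressing peptides of 20 random codons fused to Sup35N, induced 24 hours with 100 μM copper sulfate and then grown 7 days at 30°C on medium lacking adenine and uracil.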

Substance | amyloid nucleation score
VRHGSMTDCYFLHTLDRREC | inactive
STWYSRCVLALNLLLSCNRG | 1.38 ± 0.13
NASCGDNVLLYLFKMTFCLG | 0.139 ± 0.25
LASNDFTDVLHWC | inactive
NYVTLKSKGITMSWLLLDYR | inactive
ADCGHLTYLSSNSRSLGRRK | 0.197 ± 1
LARRRSTCDICWLSYKATDL | inactive
DKSLFKII | inactive
HNYLRS | inactive
IGSYIKEGCAITMSRPLFKG | inactive
EFSVLWMLQMDHSTLKFANS | inactive
LQKIKCSQADYWREMTVRDR | 1.01 ± 0.16
LVDLLHTMYSCYLGYKSFRG | inactive
RIPLWCFS | inactive
SSSKMW | inactive
LTVNDDFRYKAFWVCRSMFV | inactive
SVYGKFILAAVAGLRFGGLK | inactive
NVLKSRIGRFIMQIWYTNKW | inactive
YSAAEDVKWVLGFCYAGFNS | inactive
LCWPGTVDWFQGWRKAG | inactive
FGSFVRSMALESYLNYINAA | inactive
QLIWYTACKASIDVNRHGSG | inactive

Substance | amyloid nucleation score
NLVSNMVSNAKVDVVVWHVQ | 0.209 ± 0.54
MFEIIGHRRMLFIFYNMCYR | inactive
YHLSQAYDMKVYILNRCGLF | 0.506 ± 0.38
SLYGKDYTKTVFSDAVFVCF | inactive
TFKARSLILSLKLYANMDH | inactive
WGVHCMSQDVRVWWLSLWGG | inactive
SGSWVNDSESAEDLT | inactive
TDVMVYHPFL | inactive
CLSYITLPRCLCAHRFKLG | inactive
YWGIVVILSGDLRGYDH | inactive
FFECSRRSSVLVQMS | inactive
HGGMVSMGGNKQ | inactive
AGNAFVDR | inactive
FSDCFSRLVYPRGNNLV | inactive
EVIVVKGHGVHIVFCVGSAS | inactive
IYPLMKTELGRTMILIDLLE | inactive
FTSYRSEPTIYALLCLGLSL | 2.08 ± 0.093
VNVNSKYNVFLLMCRGVEVI | inactive
LFCSYNRRGAHLAGCAR | inactive
DSISCCSPNITAYEFYGLTG | 2.06 ± 0.066
FWSSLAVQRACKCMGGFCDL | inactive
KINLLSCLPVLRYYWISSLA | inactive

Substance | amyloid nucleation score
LFLYQLLSGHC | inactive
WEKYMRMSGRPMGRFKMTGR | inactive
AFAFYSD | inactive
CFVGVTFDLSSDLCLFCNKV | inactive
SMWQQVYSLSTLF | inactive
MPNLAFSG | 0.006 ± 0.3
RKMFWDGF | inactive
RNEDLSA | -0.096 ± 0.66
KFADQALTHSQYATFLTGLY | inactive
GASNMFHDPELSG | inactive
CCARGGRVCRQLGLVSYTNV | inactive
IVYTMCDFWSSMDLVDNLQG | inactive
MVLNERFFYTSTTGVICVTC | 1.73 ± 0.064
SERKMVSKRTLKGYFRRQVI | inactive
VVEFRNFLGIM | inactive
TQLRTVCSTW | inactive
IIVFLRLSPELCVMCVRR | inactive
SVSVRRNYKLIFAASM | inactive
TYPRLNVHLLPLDFILYPH | inactive
MYPLTVWIVLRLGDSFLK | inactive
